The source of these data is patent US20050282740A1 (BETH ISRAEL DEACONESS MEDICAL CENTER, published 2005).

Where no end group is shown, it is not given here. Fluorescein = N-terminal fluorescein label

In the experiment the target is T1, GST (UniProt P08515 1-218 = GST).
T1 construct: Control protein; also called control GST
Put plainly: fluorescence anisotropy. (In general: Fluorescence polarisation rises when a labelled molecule tumbles more slowly, as on binding a larger partner.)

T1 sequence (P08515 whole entry): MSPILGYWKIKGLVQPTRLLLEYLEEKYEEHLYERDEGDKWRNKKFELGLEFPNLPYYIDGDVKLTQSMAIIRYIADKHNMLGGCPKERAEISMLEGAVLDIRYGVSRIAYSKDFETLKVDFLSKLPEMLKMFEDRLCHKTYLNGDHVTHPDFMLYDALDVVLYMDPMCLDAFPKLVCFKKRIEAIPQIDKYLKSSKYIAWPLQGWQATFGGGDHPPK

B1: EQPLTPVTDL (peptide)
peptide: Fluorescein-EQPLTPVTDL
notes: also called nonphosphorylated Cdc25 Peptide
For B1, the binding result was “no binding”.
